Assay results published in PMC2120665.

Biological target: anti-SKL-reactive polypeptides
Test: co-IP

B1: Pay32p (natural protein)
chain: MSFMRGGSECSTGRNPLSQFTKHTAEDRSLQHDRVAGPSGGRVGGMRSNTGEMSQQDREMMARFGAAGPEQSSFNYEQMRHELHNMGAQGGQIPQVPSQQGAANGGQWARDFGGQQTAPGAAPQDAKNWNAEFQRGGSPAEAMQQQGPGPMQGGMGMGGMPMYGMARPMYSGMSANMAPQFQPQQANARVVELDEQNWEEQFKQMDSAVGKGKEVEEQTAETATATETVTETETTTEDKPMDIKNMDFENIWKNLQVNVLDNMDEWLEETNSPAWERDFHEYTHNRPEFADYQFEENNQFMEHPDPFKIGVELMETGGRLSEAALAFEAAVQKNTEHAEAWGRLGACQAQNEKEDPAIRALERCIKLEPGNLSALMNLSVSYTNEGYENAAYATLERWLATKYPEVVDQARNQEPRLGNEDKFQLHSRVTELFIRAAQLSPDGANIDADVQVGLGVLFYGNEEYDKAIDCFNAAIAVRPDDALLWNRLGATLANSHRSEEAIDAYYKALELRPSFVRARYNLGVSCINIGCYKEAAQYLLGALSMHKVEGVQDDVLANQSTNLYDTLKRVFLGMDRRDLVAKVGNGMDVNQFRNEFEF
percent of Pay32p present in the complex: 84.6%
